For assay [1], the target named is cynomolgus FolR1 monovalent Fc fusion, biotinylated (cynomolgus). In words: SPR Biacore, bivalent avidity (apparent KD), antigen on chip.
The target of assay [2] is human FolR1 monovalent Fc fusion, biotinylated (human) (UniProt P15328). The assay is described as follows: SPR Biacore, monovalent, binder captured via anti-Fab. (In general: SPR reads the build-up and loss of mass on a sensor chip optically.)
Assay [3] addresses cynomolgus FolR1 monovalent Fc fusion, biotinylated (cynomolgus). The description is as above.
Assay [4] deals with human FolR1 monovalent Fc fusion, biotinylated (human) (UniProt P15328). The assay is described as follows: SPR Biacore, bivalent avidity, antigen on chip.
Assay [5] addresses cynomolgus FolR1 monovalent Fc fusion, biotinylated (cynomolgus). The assay is described as follows: SPR Biacore, bivalent avidity, antigen on chip.
Assay [6] addresses human FolR1 monovalent Fc fusion, biotinylated (human) (UniProt P15328). In words: SPR Biacore, bivalent avidity (apparent KD), antigen on chip.

Sequence of cynomolgus FolR1 monovalent Fc fusion, biotinylated (cynomolgus) (chain, as listed by the source limits assumed, form in doubt): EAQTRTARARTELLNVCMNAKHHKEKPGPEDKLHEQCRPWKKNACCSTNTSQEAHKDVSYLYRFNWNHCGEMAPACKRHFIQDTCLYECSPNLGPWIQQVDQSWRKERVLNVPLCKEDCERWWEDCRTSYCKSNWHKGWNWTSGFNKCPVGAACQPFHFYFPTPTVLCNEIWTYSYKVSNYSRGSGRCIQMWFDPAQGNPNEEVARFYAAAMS
Sequence of human FolR1 monovalent Fc fusion, biotinylated (human) (P15328 25-233 limits assumed): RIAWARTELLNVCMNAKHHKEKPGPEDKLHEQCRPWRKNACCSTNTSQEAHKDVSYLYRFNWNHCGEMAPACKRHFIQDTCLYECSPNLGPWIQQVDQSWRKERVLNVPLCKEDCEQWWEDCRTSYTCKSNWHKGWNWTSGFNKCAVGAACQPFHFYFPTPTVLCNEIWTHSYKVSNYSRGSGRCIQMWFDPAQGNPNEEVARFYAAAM

B1: Farletuzumab (antibody, INN chains, looked up, V domains shown)
VH: EVQLVESGGGVVQPGRSLRLSCSASGFTFSGYGLSWVRQAPGKGLEWVAMISSGGSYTYYADSVKGRFAISRDNAKNTLFLQMDSLRPEDTGVYFCARHGDDPAWFAYWGQGTPVTVSS
VL: DIQLTQSPSSLSASVGDRVTITCSVSSSISSNNLHWYQQKPGKAPKPWIYGTSNLASGVPSRFSGSGSGTDYTFTISSLQPEDIATYYCQQWSSYPYMYTFGQGTKVEIKR
B1: the Kd came out at 0.65 nM in assay [1] and 67.3 nM in assay [3]. The koff in assay [2] is 0.023 s⁻¹; in assay [3] it was 0.0373 s⁻¹; in assay [4], 0.0009 s⁻¹; in assay [5] it was 0.000868 s⁻¹. The kon in assay [2] worked out at 417000 M⁻¹ s⁻¹; in assay [3] it was 553000 M⁻¹ s⁻¹; in assay [4], 1.23e+06 M⁻¹ s⁻¹; in assay [5], 1.33e+06 M⁻¹ s⁻¹.

B2: Mov19 IgG (antibody, from a related filing, V domains shown, part only)
VH: QVQLQQSGAELVKPGASVKISCKASGYSFTGYFMNWVKQSHGKSLEWIGRIHPYDGDTFYNQNFKDKATLTVDKSSNTAHMELLSLTSEDFAVYYCTRYDGSRAMDYWGQGTTVTVSS
VL: DIELTQSPASLAVSLGQRAIISCKASQSVSFAGTSLMHWYHQKPGQQPKLLIYRASNLEAGVPTRFSGSGSKTDFTLNIHPVEEEDAATYYCQQSREYPYTFGGGTKLEIK
For the molecule B2, the Kd in assay [6] is 0.14 nM; in assay [1], 0.108 nM; in assay [2], 0.55 nM; in assay [3] it was 0.65 nM. The koff came to 0.000159 s⁻¹ in assay [2], 0.000193 s⁻¹ in assay [3], 0.000121 s⁻¹ in assay [4] and 0.000139 s⁻¹ in assay [5]. For the same molecule, the kon in assay [2] came to 289000 M⁻¹ s⁻¹; in assay [3], 297000 M⁻¹ s⁻¹; in assay [4], 861000 M⁻¹ s⁻¹; in assay [5], 1.29e+06 M⁻¹ s⁻¹.

What is called koff is a measure of how fast the partners let go of each other. As a reminder, the kon is the rate constant with which the complex forms. High values mean faster complex formation, low ones slower complex formation.

The values are drawn from patent publication US20170253670A1.
